{
  "source": "patent US20220153824A1",
  "about": "(University of Pennsylvania, published 2022)",
  "binders": {"B1": {"name": "monoclonal anti-C5a antibody designated mAb 7A12 (antibody, V domains shown)", "VH": "QVQLQQSDAELVKPGASVKISCKVSGYTFTDHIIHWMNQRPEQGLEWIGYIYPRDGNTNYNENFKGKATLTADKSSSTAYMQLNSLTSEDSAVYFCARERNLEYFDYWGQGTTLTVSS", "VL": "DIVLTQSPASLAVSLGQRATISCKASQSVDYDGDNYMNWYQQKPGQPPKLLIYAASNLDSGIPARFSGSGSGTDFTLNIHPVEEEDAATYYCQQSNEDPYTFGGGTKLEIKR", "notes": "also called 7A12 mAb"}},
  "key": {"[1]": {"biological_target": "T1, human C5a (human, UniProt P01031 678-751)", "T1 construct": "domain: C5a; Purified human C5a (Hycult) in ELISA; recombinant human C5a in the Transwell assay; also called free human C5a; recombinant human complement C5a", "T1 sequence (looked up)": "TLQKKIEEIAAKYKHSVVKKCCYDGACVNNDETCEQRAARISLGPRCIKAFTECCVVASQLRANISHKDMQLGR", "experiment": "ELISA, plate coated with human C5a", "experimental": "Polystyrene microtiter plates were coated with purified human C5 or C5a (50 ng/well, Hycult) in PBS at 37° C. for 1 hr. After aspirating the C5 or C5a solution, wells were blocked with PBS containing 1% BSA in PBS at room temperature for 1 hour. Wells without C5 or C5a coating served as background controls. Different concentration of 7A12 mAb or control anti-C5 mAb or chimeric 7A12, 50 μl/well in blocking solution, were added to the wells. Following 1 hour incubation at room temperature, the wells were extensively washed with PBST. Human C5 or C5a-bound mAb was detected by the addition of anti-mouse IgG HRP 1:4000 dilution in blocking solution, which was allowed to incubate for 1 hour at RT. After washing with PBST, the plate was developed with HRP substrate for 6-10 min. The reaction was stopped with 2N H2SO4 and plate was read at 450 nm in a micro plate reader.\n(§1) An ELISA plate was coated with human C5a or mouse C5a. After incubation with serially diluted 7A12 or the control anti-C5 mAb, bound mAb was detected by HRP-conjugated anti-mouse IgG. […] Since mAb 7A12 reacts with the whole C5 protein (as shown in FIG. 1), it can be concluded that mAb 7A12 binds both the C5a moiety of native human C5 and free human C5a. On the other hand, no binding of the control anti-C5 mAb to human C5a was seen, as depicted in FIG. 3B."}, "[2]": {"biological_target": "T2, mouse C5a (mouse, UniProt P06684 679-755)", "T2 construct": "domain: C5a; also called purified mouse C5a", "T2 sequence (looked up)": "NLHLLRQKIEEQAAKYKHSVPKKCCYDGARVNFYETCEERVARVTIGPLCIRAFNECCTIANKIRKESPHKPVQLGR", "experiment": "ELISA, plate coated with mouse C5a", "experimental": "as §1"}},
  "data": [
    {"binder": "B1", "values": [
      {"measurement": "binding result", "setting": "[1]", "value": "binds"},
      {"measurement": "binding result", "setting": "[2]", "value": "no binding"}
    ]}
  ]
}
